# B1: Phage-638 (peptide)
# peptide: YCAGHLPEYISKCL
# notes: Clonal phage displaying the peptide; not shown: fused to pIII of the bacteriophage
# B2: Phage-641 (peptide)
# peptide: YCAGHLPLYMEKCL
# notes: as for B1
# B3: Phage-639 (peptide)
# peptide: YCDGHIPIYMSKCL
# notes: as for B1
# B4: Phage-642 (peptide)
# peptide: YCDGHSAEYMMKCL
# notes: as for B1
# B5: Phage-636 (peptide)
# peptide: YCEGHSLEYIGKCL
# notes: as for B1
# B6: Phage-634 (peptide)
# peptide: YCEGHSAEYMAKCL
# notes: as for B1
# B7: Phage-640 (peptide)
# peptide: YCEGHLPQYLAKCL
# notes: as for B1
# B8: Phage-633 (peptide)
# peptide: YCDGHLGIYMWKCL
# notes: as for B1
# B9: Phage-643 (peptide)
# peptide: YCEGHLPQYIPKCL
# notes: as for B1
# B10: Phage-632 (peptide)
# peptide: YCAGHLPEYMQKCL
# notes: as for B1
# B11: Phage-637 (peptide)
# peptide: YCDGHQPEYMAKCL
# notes: as for B1
# B12: Phage-635 (peptide)
# peptide: YCDGHSDEYMAKCL
# notes: as for B1
# B13: Phage-631 (peptide)
# peptide: YCEGHLPEYMSKCL
# notes: as for B1
# B14: Phage-616 (peptide)
# peptide: YCMGHLPQYMQKCL
# notes: Clonal phage of the Peptide-87 library, tested as crude phage supernatant; not shown: pIII of the bacteriophage to which the peptide is fused
# B15: Phage-614 (peptide)
# peptide: YCDGHAPEYIYKCL
# notes: as for B14
# B16: Phage-615 (peptide)
# peptide: YCDGHLEEYKQKCL
# notes: as for B14
# B17: Phage-617 (peptide)
# peptide: YCDGHTQEYIAKCL
# notes: as for B14
# Biological target: Anti-CD28 Fab (SEQ ID NOs: 696, 697)
# Test: phage ELISA, biotinylated anti-CD28 Fab on neutravidin plate, anti-M13 HRP detection
# Target sequence in this assay (VH, as listed by the source, chain 1 of 2): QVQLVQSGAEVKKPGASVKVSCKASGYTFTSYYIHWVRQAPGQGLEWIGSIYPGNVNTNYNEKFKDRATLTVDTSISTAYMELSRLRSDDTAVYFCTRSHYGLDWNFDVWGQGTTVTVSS
# Target sequence in this assay (VL, as listed by the source, chain 2 of 2): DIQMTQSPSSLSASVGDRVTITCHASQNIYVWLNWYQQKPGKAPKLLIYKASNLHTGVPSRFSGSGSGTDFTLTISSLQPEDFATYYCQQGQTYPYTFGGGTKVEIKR
# Experimental: (§1) After panning, phage infected bacteria were plated out and colonies picked into 96 well blocks. Clonal phage was then amplified and separated from bacterial cells via centrifugation.
# (§2) Clonal phage were harvested as crude supematants and screened via standard ELISAs. […] Prior to the addition of clonal phage, wells were incubated with blocking buffer and CD28 antigen or blocking buffer alone. Without washing or aspirating, clonal phage supematants were then added to the wells and incubated for a short time. Wells were then washed followed by detection of bound phage using a horse radish conjugated anti-M13 antibody. Clonal phage of interest were then sent for sequence analysis.
row,Binder,Anti-CD28 Fab signal (phage binding ELISA)
1,B1,2.14
2,B2,2.12
3,B3,2.13
4,B4,2.12
5,B5,2.14
6,B6,2.14
7,B7,2.12
8,B8,2.14
9,B9,2.12
10,B10,2.15
11,B11,2.14
12,B12,2.14
13,B13,2.15

# Biological target: Anti-CD28 Fab (SEQ ID NOs: 696, 697)
# Test: phage ELISA on captured anti-CD28 Fab, wells pre-incubated with CD28 antigen as competitor;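 note: crude clonal phage supernatants added without washing, bound phage read out by HRP-coupled anti-M13 antibody, reference wells given blocking buffer only instead of CD28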
# Target sequence in this assay (VH, as listed by the source, chain 1 of 2): as the sequence (VH, as listed by the source, chain 1 of 2) above
# Target sequence in this assay (VL, as listed by the source, chain 2 of 2): as the sequence (VL, as listed by the source, chain 2 of 2) above
# Experimental: as §1, §2
row,Binder,Anti-CD28 Fab signal in the presence of CD28 (phage binding ELISA)
1,B1,0.08
2,B2,0.06
3,B3,0.08
4,B4,0.08
5,B5,0.06
6,B6,0.06
7,B7,0.1
8,B8,0.08
9,B9,0.07
10,B10,0.09
11,B11,0.07
12,B12,0.07
13,B13,0.07

# Biological target: T1, Anti-CD28 Fab (SEQ ID NOs: 696, 697)
# T1 construct: In the phage ELISA the Fab was biotinylated and captured on neutravidin coated plates
# Test: phage ELISA; captured anti-CD28 Fab pre-incubated with CD28 antigen as competitor, anti-M13 HRP;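 note: crude clonal phage supernatants added without washing after CD28 pre-incubation, bound phage detected with HRP anti-M13 antibody, reference wells got blocking buffer lacking CD28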
# T1 sequence (VH, as listed by the source, chain 1 of 2): as the sequence (VH, as listed by the source, chain 1 of 2) above
# T1 sequence (VL, as listed by the source, chain 2 of 2): as the sequence (VL, as listed by the source, chain 2 of 2) above
row,Binder,Anti-CD28 Fab signal in the presence of CD28 (phage binding ELISA)
1,B14,0.11
2,B15,0.06
3,B16,0.08
4,B17,0.06

# Biological target: T1, Anti-CD28 Fab (SEQ ID NOs: 696, 697)
# Test: phage ELISA; biotinylated anti-CD28 Fab on neutravidin plate, clonal phage supernatant, anti-M13 HRP
row,Binder,Anti-CD28 Fab signal (phage binding ELISA)
1,B14,2.18
2,B15,2.18
3,B16,2.18
4,B17,2.17

# Biological target: anti-CD28 Fab (SEQ ID NOs: 696, 697)
# Sequence (VH, as listed by the source, chain 1 of 2): as the sequence (VH, as listed by the source, chain 1 of 2) above
# Sequence (VL, as listed by the source, chain 2 of 2): as the sequence (VL, as listed by the source, chain 2 of 2) above
# Test: phage binding ELISA; Fab on plate pre-incubated with CD28 antigen as competitor, anti-M13 HRP detection;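 note: crude clonal phage supernatants screened by ELISA, with comparison wells pre-incubated in blocking buffer only, lacking CD28 antigen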
# Experimental: as §1, §2
row,Binder,Anti-CD28 Fab signal in the presence of CD28
1,YCDGHTQEYMAKCL (tested as crude phage supernatant) [Phage-618],0.07
2,YCDGHMPEYMWKCL (tested as crude phage supernatant) [Phage-620],0.09
3,YCEGHLPQYLQKCL (tested as crude phage supernatant) [Phage-626],0.09
4,YCEGHLPVYMWKCL (tested as crude phage supernatant) [Phage-619],0.09
5,YCDGHLPEYMWKCI (tested as crude phage supernatant) [Phage-628],0.07
6,YCAGHSPEYMTKCL (tested as crude phage supernatant) [Phage-621],0.09
7,YCDGHSNEYMAKCL (tested as crude phage supernatant) [Phage-625],0.07
8,YCDGHSLEYMAKCL (tested as crude phage supernatant) [Phage-630],0.06
9,YCDGHVAEYRDKCL (tested as crude phage supernatant) [Phage-623],0.07
10,YCAGHAPEYIQKCL (tested as crude phage supernatant) [Phage-622],0.09
11,YCAGHAPEYMQKCL (tested as crude phage supernatant) [Phage-624],0.07
12,YCDGHSAEYMWKCL (tested as crude phage supernatant) [Phage-629],0.08
13,YCDGHVAEYMAKCL (tested as crude phage supernatant) [Phage-627],0.07

# Biological target: anti-CD28 Fab (SEQ ID NOs: 696, 697)
# Test: phage binding ELISA; biotinylated Fab on neutravidin plate, clonal phage supernatant, anti-M13 HRP detection;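 note: phage from clones picked after panning, added to wells pre-incubated with blocking buffer with or without CD28 antigen, then briefly incubated and washed before detection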
# Experimental: as §1, §2
row,Binder,"Anti-CD28 Fab (SEQ ID NOs: 696, 697) signal"
1,YCDGHTQEYMAKCL (tested as crude phage supernatant) [Phage-618],2.17
2,YCDGHMPEYMWKCL (tested as crude phage supernatant) [Phage-620],2.17
3,YCEGHLPQYLQKCL (tested as crude phage supernatant) [Phage-626],2.16
4,YCEGHLPVYMWKCL (tested as crude phage supernatant) [Phage-619],2.17
5,YCDGHLPEYMWKCI (tested as crude phage supernatant) [Phage-628],2.15
6,YCAGHSPEYMTKCL (tested as crude phage supernatant) [Phage-621],2.17
7,YCDGHSNEYMAKCL (tested as crude phage supernatant) [Phage-625],2.16
8,YCDGHSLEYMAKCL (tested as crude phage supernatant) [Phage-630],2.15
9,YCDGHVAEYRDKCL (tested as crude phage supernatant) [Phage-623],2.17
10,YCAGHAPEYIQKCL (tested as crude phage supernatant) [Phage-622],2.17
11,YCAGHAPEYMQKCL (tested as crude phage supernatant) [Phage-624],2.16
12,YCDGHSAEYMWKCL (tested as crude phage supernatant) [Phage-629],2.15
13,YCDGHVAEYMAKCL (tested as crude phage supernatant) [Phage-627],2.16

# Biological target: T2, Anti-CD28 Fab (SEQ ID NOs: 696, 697) (biotinylated (site not stated))
# T2 sequence (VH, as listed by the source, chain 1 of 2): as the sequence (VH, as listed by the source, chain 1 of 2) above
# T2 sequence (VL, as listed by the source, chain 2 of 2): as the sequence (VL, as listed by the source, chain 2 of 2) above
# Test: phage binding ELISA; biotinylated anti-CD28 Fab on neutravidin plates, clonal phage supernatant, anti-M13 HRP detection
row,Binder,Anti-CD28 Fab signal (phage binding ELISA)
1,YCDGHMPEYMLKCL (tested as crude phage supernatant) [Phage-649],2.11
2,YCDGHAPQYMLKCL (tested as crude phage supernatant) [Phage-644],2.12
3,YCQGHLPQYIAKCL (tested as crude phage supernatant) [Phage-655],2.09
4,YCAGHTQEYMSKCL (tested as crude phage supernatant) [Phage-651],2.1
5,YCDGHVPQYMAKCL (tested as crude phage supernatant) [Phage-653],2.1
6,YCDGHLPVYMAKCL (tested as crude phage supernatant) [Phage-645],2.11
7,YCDGHLEEYMAKCL (tested as crude phage supernatant) [Phage-648],2.11
8,YCEGHSPQYMQKCL (tested as crude phage supernatant) [Phage-652],2.1
9,YCDGHSAEYMSKCL (tested as crude phage supernatant) [Phage-654],2.1
10,YCSGHAPIYMAKCL (tested as crude phage supernatant) [Phage-650],2.1
11,YCAGHLPQYMEKCM (tested as crude phage supernatant) [Phage-656],2.09
12,YCMGHSEEYMQKCL (tested as crude phage supernatant) [Phage-646],2.11
13,YCDGHLPEYMHKCL (tested as crude phage supernatant) [Phage-647],2.11

# Biological target: T2, Anti-CD28 Fab (SEQ ID NOs: 696, 697)
# Test: phage binding ELISA; Fab-coated wells pre-incubated with CD28 antigen as competitor, then clonal phage, anti-M13 HRP detection
# Experimental: as §1, §2
row,Binder,Anti-CD28 Fab signal in the presence of CD28 (phage binding ELISA)
1,YCDGHMPEYMLKCL (tested as crude phage supernatant) [Phage-649],0.09
2,YCDGHAPQYMLKCL (tested as crude phage supernatant) [Phage-644],0.09
3,YCQGHLPQYIAKCL (tested as crude phage supernatant) [Phage-655],0.08
4,YCAGHTQEYMSKCL (tested as crude phage supernatant) [Phage-651],0.05
5,YCDGHVPQYMAKCL (tested as crude phage supernatant) [Phage-653],0.07
6,YCDGHLPVYMAKCL (tested as crude phage supernatant) [Phage-645],0.09
7,YCDGHLEEYMAKCL (tested as crude phage supernatant) [Phage-648],0.09
8,YCEGHSPQYMQKCL (tested as crude phage supernatant) [Phage-652],0.06
9,YCDGHSAEYMSKCL (tested as crude phage supernatant) [Phage-654],0.06
10,YCSGHAPIYMAKCL (tested as crude phage supernatant) [Phage-650],0.07
11,YCAGHLPQYMEKCM (tested as crude phage supernatant) [Phage-656],0.08
12,YCMGHSEEYMQKCL (tested as crude phage supernatant) [Phage-646],0.07
13,YCDGHLPEYMHKCL (tested as crude phage supernatant) [Phage-647],0.11

# Reference: patent US20260242478A1 (published 2026)
